Test results: patent JP2005185281A

B1: クローン126 (015-126 pIII:抗HER2抗体、ファージpIII融合scFv型抗体) (scFv, part only; not given: CL and pIII fusion parts, part only)
scFv, part: QVQLVQSGAEVKKPGESLKISCKGSGYSFTSYWIGWVRQMPGKGLEWMGIIYPGDSDTRYSPSFQGQVTISADKSISTAYLQWSSLKASDTAMYYCARLTLSYSSSWFDYWGQGTLVTVSSQTVVTQEPSFSVSPGGTVTLTCGLSSGSVSTSYYPSWYQQTPGQAPRTLIYSTNTRSSGVPDRFSGSILGNKAALTITGAQADDESDYYCVLYMGSGISVFGGGTKLTVL

Columns and labels:
[1] = target: SKOv-3膜タンパク (可溶性分画、ダイナビーズ結合); assay: phage recovery: Dynabeads with 10 ug SKOv-3 membrane protein + 1x10^8 cfu phage
[2] = target: SKOv-3細胞 (卵巣癌細胞株) の細胞表面抗原; assay: phage recovery: 1x10^7 phage + 1x10^7 SKOv-3 cells, 3 spins through solution (1) 1%BSA-MEM; colonies counted
[3] = target: SKOv-3細胞 (卵巣癌細胞株) の細胞表面抗原; assay: phage recovery: 1x10^7 phage + 1x10^7 SKOv-3 cells, 4C 4 h, 3 spins through solution (1) 1%BSA-MEM; colonies counted
[4] = target: SKOv-3細胞 (卵巣癌細胞株) の細胞表面抗原; assay: phage recovery: 1x10^7 phage + 1x10^7 SKOv-3 cells, 4C 4 h, 3 spins through solution (2) Diphenyl Ether:1.1.1-Trichloroethane:Hexane=44:27:33; colonies counted
[5] = target: SKOv-3細胞 (卵巣癌細胞株) の細胞表面抗原; assay: phage recovery: 1x10^7 phage + 1x10^7 SKOv-3 cells, 4C 4 h, 3 spins through solution (3) Isopropyl Ether:1.1.1-Trichloroethane:Hexane=20:50:30; colonies counted
[6] = target: SKOv-3細胞 (卵巣癌細胞株) の細胞表面抗原; assay: phage recovery: 1x10^7 phage + 1x10^7 SKOv-3 cells, 3 spins through solution (2) Ficoll-Paque diluted 4-fold in PBS; colonies counted
[7] = target: SKOv-3膜タンパク (可溶性分画、ダイナビーズ結合); assay: phage recovery on SKOv-3 membrane protein beads with 400 ug free SKOv-3 membrane protein as competitor
[8] = target: SKOv-3膜タンパク (可溶性分画、ダイナビーズ結合); assay: phage recovery on SKOv-3 membrane protein beads with 400 ug free HeLa membrane protein present
[9] = target: SKOv-3膜タンパク (可溶性分画、ダイナビーズ結合); assay: phage recovery on SKOv-3 membrane protein beads with 400 ug free SKOv-3 membrane protein against recovery without it

Molecule	回収されたファージ (cfu) [1]	回収されたファージの数 [2]	回収されたファージの数 [3]	回収されたファージの数 [4]	回収されたファージの数 [5]	回収されたファージの数 [6]	回収されたファージ (cfu) [7]	回収されたファージ (cfu) [8]	回収の変化 (遊離SKOv-3膜タンパク共存 / 非共存) [9]
pAALSC3-D1.3HL 抗HEL(hen egg lysozyme)抗体ファージ (scFv)	11 cfu	1040 ファージ数	308 ファージ数	176 ファージ数	198 ファージ数	1040 ファージ数	–	–	–
B1	87000 cfu	–	–	–	–	–	2200 cfu	50000 cfu	0.025 fold
